From paper PMC11417369, “DNA sequence and chromatin differentiate sequence-specific transcription factor binding in the human malaria parasite Plasmodium falciparum”

T1: SIP2 D1 (Plasmodium falciparum, UniProt C6KSN9 177-235)
T1 sequence: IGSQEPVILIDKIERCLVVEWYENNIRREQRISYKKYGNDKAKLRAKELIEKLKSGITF

B1: GTGCAC_site10082 (dsDNA)
DNA 1: ATAATAACTTGTAAGGTGCATTTTATGTTTTCTTAA
DNA 2: TTAAGAAAACATAAAATGCACCTTACAAGTTATTAT
B2: GTGCAC_site10263 (dsDNA)
DNA 1: TTTAATTATTAAATGGTGCACTTGAAATATAAAAAT
DNA 2: ATTTTTATATTTCAAGTGCACCATTTAATAATTAAA
B3: GTGCAC_site9895 (dsDNA)
DNA 1: ATTGAATTCCAACTGGTGCACCAGTAAGATTGAAAA
DNA 2: TTTTCAATCTTACTGGTGCACCAGTTGGAATTCAAT
B4: GTGCAC_site9525 (dsDNA)
DNA 1: CTGCGTTTAATATGCGTGCACCTTGGTTTTATATCT
DNA 2: AGATATAAAACCAAGGTGCACGCATATTAAACGCAG
B5: GTGCAC_site9513 (dsDNA)
DNA 1: TATATATGTATATGTGTGCACCTTATTTCTTTTATT
DNA 2: AATAAAAGAAATAAGGTGCACACATATACATATATA
B6: GTGCAC_site10519 (dsDNA)
DNA 1: CATGCCTTTAAAAAGGTGCAAACATTTTCACAAACA
DNA 2: TGTTTGTGAAAATGTTTGCACCTTTTTAAAGGCATG
B7: GTGCAC_site9650 (dsDNA)
DNA 1: CAATTTGGTGTACAGGTGCACATGCCTCACGATAAA
DNA 2: TTTATCGTGAGGCATGTGCACCTGTACACCAAATTG
B8: GTGCAC_site10197 (dsDNA)
DNA 1: TCCATATGCAAACTGGTGCACAAGTAGCTTTTATAT
DNA 2: ATATAAAAGCTACTTGTGCACCAGTTTGCATATGGA
B9: GTGCAC_site9862 (dsDNA)
DNA 1: ACACATACACATTAGGTGCACATAATTCAATATTAC
DNA 2: GTAATATTGAATTATGTGCACCTAATGTGTATGTGT
B10: GTGCAC_site10767 (dsDNA)
DNA 1: TGTTTTATTTAGAAGGTGCACATTAATATTAAATAA
DNA 2: TTATTTAATATTAATGTGCACCTTCTAAATAAAACA
B11: GTGCAC_site10577 (dsDNA)
DNA 1: TTTTTTTTCTATGTGGTGCACATTATTTTTTTTTTT
DNA 2: AAAAAAAAAAATAATGTGCACCACATAGAAAAAAAA
B12: GTGCAC_site10328 (dsDNA)
DNA 1: AAATTCTGCATCGAGGTGCGCCATAAAAATTGTGGT
DNA 2: ACCACAATTTTTATGGCGCACCTCGATGCAGAATTT
B13: GTGCAC_site9532 (dsDNA)
DNA 1: ATATATATATTAAAGGTGCACAAATAAATATATACA
DNA 2: TGTATATATTTATTTGTGCACCTTTAATATATATAT
B14: GTGCAC_site10727 (dsDNA)
DNA 1: ATAGAAGGCAACTTGGTGCACAAAAAAAAAAATAAT
DNA 2: ATTATTTTTTTTTTTGTGCACCAAGTTGCCTTCTAT
B15: GTGCAC_site9853 (dsDNA)
DNA 1: ACTATTTAATATAGGGTGCAACTTTTTCAAGTAAAT
DNA 2: ATTTACTTGAAAAAGTTGCACCCTATATTAAATAGT
B16: GTGCAC_site10518 (dsDNA)
DNA 1: ATATATTTCAAAGGGGTGCAGGCATATTTAAGCAAA
DNA 2: TTTGCTTAAATATGCCTGCACCCCTTTGAAATATAT
B17: GTGCAC_site9617 (dsDNA)
DNA 1: TTTTTTTTTTTTTGTGTGCACCTTATTTTTTTGTAT
DNA 2: ATACAAAAAAATAAGGTGCACACAAAAAAAAAAAAA
B18: GTGCAC_site10229 (dsDNA)
DNA 1: CACATTAATTTTTGGGTGCACTTGGGAAATTTTGGT
DNA 2: ACCAAAATTTCCCAAGTGCACCCAAAAATTAATGTG
B19: GTGCAC_site10337 (dsDNA)
DNA 1: GGGATATTTTAAAGGGTGCATATTATTAAAATAATG
DNA 2: CATTATTTTAATAATATGCACCCTTTAAAATATCCC
B20: GTGCAC_site9760 (dsDNA)
DNA 1: ATAATTATTCTTATGGTGCACTGAATATACATGTTG
DNA 2: CAACATGTATATTCAGTGCACCATAAGAATAATTAT
B21: GTGCAC_site10495 (dsDNA)
DNA 1: ATATATATAATATAGGTGCACTACTTATTTAAAAAA
DNA 2: TTTTTTAAATAAGTAGTGCACCTATATTATATATAT
B22: GTGCAC_site10574 (dsDNA)
DNA 1: AATTAATGGCTAAAGGTGCACAATATATATATTACA
DNA 2: TGTAATATATATATTGTGCACCTTTAGCCATTAATT
B23: GTGCAC_site9943 (dsDNA)
DNA 1: AATTAATGGTTAAAGGTGCACAATACATATATTACA
DNA 2: TGTAATATATGTATTGTGCACCTTTAACCATTAATT
B24: GTGCAC_site9754 (dsDNA)
DNA 1: ATATAATATTTTAGAGTGCACCGATAACAATAAATA
DNA 2: TATTTATTGTTATCGGTGCACTCTAAAATATTATAT
B25: GTGCAC_site9733 (dsDNA)
DNA 1: TAAAAATTAAAAAGGGTGCAAAAAAAAAAAAAAAAA
DNA 2: TTTTTTTTTTTTTTTTTGCACCCTTTTTAATTTTTA
B26: GTGCAC_site10674 (dsDNA)
DNA 1: AAAAAAAAAAAAAAGGTGCAAATAAATTAACCTTAT
DNA 2: ATAAGGTTAATTTATTTGCACCTTTTTTTTTTTTTT
B27: GTGCAC_site9660 (dsDNA)
DNA 1: CTTTTTTTTTTGGGGGTGCATGCAAGACATATATTT
DNA 2: AAATATATGTCTTGCATGCACCCCCAAAAAAAAAAG
B28: GTGCAC_site9503 (dsDNA)
DNA 1: ATCTATTTGTAAAGGGTGCGCATATCAATAAAAAAT
DNA 2: ATTTTTTATTGATATGCGCACCCTTTACAAATAGAT
B29: GTGCAC_site10597 (dsDNA)
DNA 1: TGAACTCAACAAAGGGTGCATAACAAAAATAGACGT
DNA 2: ACGTCTATTTTTGTTATGCACCCTTTGTTGAGTTCA
B30: GTGCAC_site10454 (dsDNA)
DNA 1: TTTTTAATATATTAGGTGCACAATAATACACTTTAT
DNA 2: ATAAAGTGTATTATTGTGCACCTAATATATTAAAAA
B31: GTGCAC_site10198 (dsDNA)
DNA 1: TTTTTAACGTATAAGGTGCACTGTATATGGTACTCA
DNA 2: TGAGTACCATATACAGTGCACCTTATACGTTAAAAA
B32: GTGCAC_site10200 (dsDNA)
DNA 1: CTCATTTTTGTACAGGTGCACTTATCGTTACACTAT
DNA 2: ATAGTGTAACGATAAGTGCACCTGTACAAAAATGAG
B33: GTGCAC_site10740 (dsDNA)
DNA 1: AAAAATTAACAAAAGGTGCAATTTATTTATTAACGG
DNA 2: CCGTTAATAAATAAATTGCACCTTTTGTTAATTTTT
B34: GTGCAC_site9881 (dsDNA)
DNA 1: TCCGCATGTACATGGGTGCACATAACACCCATTTAA
DNA 2: TTAAATGGGTGTTATGTGCACCCATGTACATGCGGA
B35: GTGCAC_site10066 (dsDNA)
DNA 1: TAAACATATAGAGGGGTGCAAAGAATTGTAAAATTT
DNA 2: AAATTTTACAATTCTTTGCACCCCTCTATATGTTTA
B36: GTGCAC_site9600 (dsDNA)
DNA 1: AACCTTACACAAGGGGTGCAATATTATTTCGATAAA
DNA 2: TTTATCGAAATAATATTGCACCCCTTGTGTAAGGTT
B37: GTGCAC_site10015 (dsDNA)
DNA 1: TATAATGGTTCTGGTGTGCACCATGACAGAATCAAG
DNA 2: CTTGATTCTGTCATGGTGCACACCAGAACCATTATA
B38: GTGCAC_site10641 (dsDNA)
DNA 1: ATATAATAACAAAAGGTGCGCATTAAGACAAAAAAA
DNA 2: TTTTTTTGTCTTAATGCGCACCTTTTGTTATTATAT
B39: GTGCAC_site10448 (dsDNA)
DNA 1: TATTAATTTAAATGGGTGCAAAACCTATATAAATAT
DNA 2: ATATTTATATAGGTTTTGCACCCATTTAAATTAATA
B40: GTGCAC_site10679 (dsDNA)
DNA 1: AGCATATTATTTTAGGTGCACTTGAAATGTGTTAAC
DNA 2: GTTAACACATTTCAAGTGCACCTAAAATAATATGCT
B41: GTGCAC_site9401 (dsDNA)
DNA 1: AAAAAAAAAAAAAAGGTGCATACTTTGAATTAATAT
DNA 2: ATATTAATTCAAAGTATGCACCTTTTTTTTTTTTTT
B42: GTGCAC_site10039 (dsDNA)
DNA 1: CAGTAGTTTTTATGGGTGCAAAACATATATATAACA
DNA 2: TGTTATATATATGTTTTGCACCCATAAAAACTACTG
B43: GTGCAC_site9950 (dsDNA)
DNA 1: AAAAAAAAAAAAATGGTGCAACTTTGTTAAAGGAAA
DNA 2: TTTCCTTTAACAAAGTTGCACCATTTTTTTTTTTTT
B44: GTGCAC_site10264 (dsDNA)
DNA 1: TTATTTATTTATTGGGTGCACTTGATTTAAATATGC
DNA 2: GCATATTTAAATCAAGTGCACCCAATAAATAAATAA

Target: T1, SIP2 D1
Experiment: gcPBM; about 25 ug protein; PBS, 1% milk, 0.2 mg/ml BSA, salmon testes DNA, 0.03% Triton X-100
Conditions: tags: N-terminal GST (pGEX-4T-1), kept; label: surface-attached array probe

Binder	binding signal
B1	10.8 ln median PBM intensity, better of two orientations
B2	11.8 ln median PBM intensity, better of two orientations
B3	11.6 ln median PBM intensity, better of two orientations
B4	11.3 ln median PBM intensity, better of two orientations
B5	11.7 ln median PBM intensity, better of two orientations
B6	11.4 ln median PBM intensity, better of two orientations
B7	11.3 ln median PBM intensity, better of two orientations
B8	11 ln median PBM intensity, better of two orientations
B9	11.3 ln median PBM intensity, better of two orientations
B10	11.8 ln median PBM intensity, better of two orientations
B11	11.4 ln median PBM intensity, better of two orientations
B12	10.9 ln median PBM intensity, better of two orientations
B13	11.3 ln median PBM intensity, better of two orientations
B14	11.4 ln median PBM intensity, better of two orientations
B15	11.5 ln median PBM intensity, better of two orientations
B16	11.6 ln median PBM intensity, better of two orientations
B17	11.8 ln median PBM intensity, better of two orientations
B18	11.6 ln median PBM intensity, better of two orientations
B19	11.8 ln median PBM intensity, better of two orientations
B20	11 ln median PBM intensity, better of two orientations
B21	11.7 ln median PBM intensity, better of two orientations
B22	11.7 ln median PBM intensity, better of two orientations

Binder	binding signal
B23	11.6 ln median PBM intensity, better of two orientations
B24	11.4 ln median PBM intensity, better of two orientations
B25	11.6 ln median PBM intensity, better of two orientations
B26	11.4 ln median PBM intensity, better of two orientations
B27	11.5 ln median PBM intensity, better of two orientations
B28	11.6 ln median PBM intensity, better of two orientations
B29	11.6 ln median PBM intensity, better of two orientations
B30	11.3 ln median PBM intensity, better of two orientations
B31	11.5 ln median PBM intensity, better of two orientations
B32	11.5 ln median PBM intensity, better of two orientations
B33	10.9 ln median PBM intensity, better of two orientations
B34	11.6 ln median PBM intensity, better of two orientations
B35	10.8 ln median PBM intensity, better of two orientations
B36	11.5 ln median PBM intensity, better of two orientations
B37	11.4 ln median PBM intensity, better of two orientations
B38	11.5 ln median PBM intensity, better of two orientations
B39	11.1 ln median PBM intensity, better of two orientations
B40	11.5 ln median PBM intensity, better of two orientations
B41	11.7 ln median PBM intensity, better of two orientations
B42	11.3 ln median PBM intensity, better of two orientations
B43	11.6 ln median PBM intensity, better of two orientations
B44	11.8 ln median PBM intensity, better of two orientations
